This note sets out measurements from IntAct's records for PubMed 15644435.

Erythroid transcription factor (Mus musculus), P17679 R216Q, sequence (P17679 whole entry R216Q): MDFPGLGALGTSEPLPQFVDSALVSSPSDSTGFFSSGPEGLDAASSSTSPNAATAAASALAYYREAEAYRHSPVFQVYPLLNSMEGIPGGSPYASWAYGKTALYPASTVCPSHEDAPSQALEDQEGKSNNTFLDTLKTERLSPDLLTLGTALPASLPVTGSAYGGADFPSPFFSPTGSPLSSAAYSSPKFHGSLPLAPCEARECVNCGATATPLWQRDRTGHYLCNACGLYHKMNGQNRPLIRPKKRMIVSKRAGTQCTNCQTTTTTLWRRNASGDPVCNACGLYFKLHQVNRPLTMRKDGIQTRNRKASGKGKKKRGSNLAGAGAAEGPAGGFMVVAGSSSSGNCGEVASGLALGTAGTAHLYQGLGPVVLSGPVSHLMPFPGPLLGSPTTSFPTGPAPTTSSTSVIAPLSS
Erythroid transcription factor (Mus musculus), P17679 D218G, sequence (P17679 whole entry D218G): as the sequence (P17679 whole entry R216Q) above, with Q216R, D218G counted along it
Erythroid transcription factor (Mus musculus), P17679 G208S, sequence (P17679 whole entry G208S): as the sequence (P17679 whole entry R216Q) above, with G208S, Q216R counted along it
Erythroid transcription factor (Mus musculus), P17679 V205M, sequence (P17679 whole entry V205M): as the sequence (P17679 whole entry R216Q) above, with V205M, Q216R counted along it

The target in the assay is ush_drome ush (UniProt Q9VPQ6).
ush_drome ush, sequence (Q9VPQ6 whole entry): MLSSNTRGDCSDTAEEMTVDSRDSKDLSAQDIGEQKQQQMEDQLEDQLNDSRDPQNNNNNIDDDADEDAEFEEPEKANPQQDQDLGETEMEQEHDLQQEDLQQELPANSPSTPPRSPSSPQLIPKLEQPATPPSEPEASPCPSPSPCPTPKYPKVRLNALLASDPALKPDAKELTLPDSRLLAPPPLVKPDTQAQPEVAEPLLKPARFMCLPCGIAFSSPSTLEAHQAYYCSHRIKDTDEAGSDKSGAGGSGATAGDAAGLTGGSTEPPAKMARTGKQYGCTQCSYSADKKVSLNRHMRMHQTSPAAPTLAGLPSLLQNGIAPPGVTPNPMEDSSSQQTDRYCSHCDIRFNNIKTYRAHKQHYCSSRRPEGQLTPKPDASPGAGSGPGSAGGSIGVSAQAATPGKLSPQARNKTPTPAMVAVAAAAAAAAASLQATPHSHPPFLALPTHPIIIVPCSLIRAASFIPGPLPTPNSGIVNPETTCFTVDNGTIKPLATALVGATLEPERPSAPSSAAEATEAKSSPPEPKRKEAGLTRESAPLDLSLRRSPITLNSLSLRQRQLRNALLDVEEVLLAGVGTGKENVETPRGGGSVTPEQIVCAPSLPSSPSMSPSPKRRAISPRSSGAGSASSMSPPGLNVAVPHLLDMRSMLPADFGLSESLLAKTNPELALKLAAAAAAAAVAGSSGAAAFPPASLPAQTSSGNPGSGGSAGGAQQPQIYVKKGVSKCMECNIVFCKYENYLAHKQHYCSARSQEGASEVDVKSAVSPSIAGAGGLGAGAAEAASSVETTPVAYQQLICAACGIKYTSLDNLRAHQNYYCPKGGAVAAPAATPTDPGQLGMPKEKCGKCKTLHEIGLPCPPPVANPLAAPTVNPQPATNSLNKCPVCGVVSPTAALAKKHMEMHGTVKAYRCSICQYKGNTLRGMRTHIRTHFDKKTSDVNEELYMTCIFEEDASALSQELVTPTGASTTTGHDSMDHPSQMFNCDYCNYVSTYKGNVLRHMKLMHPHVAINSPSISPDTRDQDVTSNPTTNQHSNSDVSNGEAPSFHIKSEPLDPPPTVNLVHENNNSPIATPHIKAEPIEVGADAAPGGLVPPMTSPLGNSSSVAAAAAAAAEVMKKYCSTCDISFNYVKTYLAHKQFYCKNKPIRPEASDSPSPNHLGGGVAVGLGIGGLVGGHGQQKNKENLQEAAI
Turning to “Erythroid transcription factor (Mus musculus), P17679 R216Q”, the “effect of a mutation on the interaction” value was “with no effect”.
As for “Erythroid transcription factor (Mus musculus), P17679 V205M”, the “effect of a mutation on the interaction” value is given as “disrupting interaction strength”.
As for “Erythroid transcription factor (Mus musculus), P17679 D218G”, the “effect of a mutation on the interaction” value was “with no effect”.
For “Erythroid transcription factor (Mus musculus), P17679 G208S”, the “effect of a mutation on the interaction” value is given as “disrupting interaction strength”.
